Test results published in the DeepSol protein solubility set.

assay: soluble on expression in E. coli; label from the status in PepcDB or PDB records

**Q.** For “MATFSISAMAAQCGVTTANIRSWERYGLLQPTKDEAGNRFYCIEDAIRIQHIIDALSKGFSLKEIKPALYGEETHCRSGWLFYQEEILAQCRKFEPAKLRKLLWRYGREIPPCIVIESILRPLRLWLSAGDDDARRFEKALLDTAIIEYATFQLSSVRKAPAGTMLIAAFSLNDPIELWLETIKYCSEGMRVEVIPWQAPMPDLLSTSFEHIVLWHDETLTPAQENLIQALKESGKFSLHVKNGSGLTLLPAVYRQHEMPESMQHVAPQIHANGYEKSGTAR”, which “soluble on expression in E. coli” value is on record?
**A.** not soluble

**Q.** For “MATNLIGLDTTQSQKLANALNNLLANYQVFYMNTRGYHWNIQGKEFFELHAKFEEIYTDLQLKIDELAERILTLSARPMHSFSGYLKAAQIKEHTDSIDGRSSMQGLVDGFSILLHQQRDILELAGETGDEGTSALMSDYIREQEKLVWMLNAWLK”, which “soluble on expression in E. coli” value is on record?
**A.** not soluble

**Q.** For “MATNLKSIAKLQKPIQYDKVIEVDRIFADPAFIEQHRQRILASFKDAKESALYHELTHIVIKDNLFSAAMNEIVSYFEFQINPEELKNVVEGLKRDVVKDADEKTIQSIAEKIIKKALVFNFLQKEWKVEVSDDIVKRVISLYYEKTNQNVREYLDDKQKFEGIRTALIEERMVLETINHFKFHFNLTGQLPS”, which “soluble on expression in E. coli” value is on record?
**A.** soluble

**Q.** Which “soluble on expression in E. coli” value does the source give for “MATSMIQRLFKQGTKIVGVGLNYASHAKELGNALPKDPIVFLKPTSSYLENGGTIEIPHPLDSLHHEVELAVVIGQKARDVPERLAMNYIGGYALALDMTARELQVSAMASGLPCTLAKGQDTFTPISSVLPKAMVLDPNNLELWLKVDDETRQKGWTKDMIFKVPYLISYISSVMTLFKGDVILTGTPEGIGPVKIGQKITAGITGLSEVQFDVGRRLKPLLR” here?
**A.** soluble

**Q.** Which “soluble on expression in E. coli” value does the source give for “MATTEQLANTTQKEPVIDLDQDSNMEIAHKIQNQTKRLPISEPANKNKNVTSKQNKETNRKTFEKSKRMATSTIQDRVLRTQKTRKDKESTTEKVNAILKKSAKQIKVREEEEGDDDLEDELTLYPSKRKMMVGSKNRKRTIKPNRDTIAEEQETDGEHGVKQRAFDPKQRHRQCPECLLLFSTPDKLKRHMKSHGDVPDVYCSLCNTPIKFKYNLRVHLEKCYDKMKLSLHDSMLSKVYPDFVRKLQEAAKNPVLPMPTLEGMPYEFTLKGVVGFDTSLDITKDLMLAKYEQKKQRELAGIDSDDSDELDYFDDFPDE” here?
**A.** not soluble

**Q.** For “MATTIPGSLVNKTKKFFMGMPAPTGYVPGVGRGATGFTTRSDIGPARDPTELPEAGPVGPSPQGASSSSAPPAKRARDDDGDGEDLNEANYDEFSGYSGSLFSKDPYDQEDEDADRIYNEVDDRLDERHKERREKKYKELVELFHKDRPKIQQGFQDLKRQLAEVTEDEWQAIPEVGDMRNKAKRNARAEKFTPVPDSIIAMNMNYGQMSHSIDSGNGLTTPFASGFMSTLGGGGGAAAAGAKSGIMTPGWKSDIPSSGTSTDLDLVKIGQARNKIMDMQLTQVSDSVTGQTVVDPKGYLTDMQSIIPQMGGDLQDIKKARMLLKSVRETNPRHPPAWVASAVLEEQAGKLQTARNFIMEGCEKIKNSEELWLHAIRLHPPELGRSIVANAVRSCPHSVRLWCKASDLEQDLKDKKKVLRKALEQIPSSVKLWKAAVELEDPEDARILLTRAVECCSSSTEMWLALARLETYENARKVLNKAREHIPTDRHIWLSAARLEETRGQKDMVDKIVAKAMSSLKVNQVEINRDQWLKDAVDAEMAKCPITCQAIIRNVIGLGVEDEDKRTTWLADAENFEKEEAFTCVRTVYAIALKEFSRKRSIWDAAIHFEREHGSLDEHEAILLKACETVPEVEDYWLMLAKLRFVNKRVGEARDTLMSAFEKHGHQSEKIWLAATKIEIETDQFDTARGLFGKARAKAPSARVWMKNAHFEWCLGNVEEAKRLCEECIQKYDDFHKIYLVLGQVLEQMNDVHGARLAYTQGIRKCPGVIPLWILLVRLEEKAGQIVKARVDLEKARLRNPKNDDLWLESVRFEQRVGCPEMAKERMSRALQECEGSGKLWAEAIWMEGPHGRRAKSIDALKKCEHNPHVLIAAARLFWSERKIKKAREWFVRAVNLDPDNGDAFANFLAFEQIHGKEEDRKSVFKKCVTSEPRYGDLWQSVSKDPINWRRTTEEILQLATQKIKVPT”, which “soluble on expression in E. coli” value is on record?
**A.** not soluble

**Q.** Which “soluble on expression in E. coli” value does the source give for “MAVDGLVSEKIKELLKELGKTYKLVVLTADTYGTLEKEFNGLPITVDKIKNEIEKEKAAEKYSPYIGIGNGNNDCLMLEKSELGILIIGEEGASTNALLKSDIVINNIKDAINLLLNEKRIIATL” here?
**A.** not soluble

**Q.** For “MAVEAVWESARILANSRFAVAFTGAGISAESGIPTFRGKDGLWSRFDPRDLATPEAFNRDPRLVWEWYSWRIERVLAAKPNKAHRLLARLEDSGVLKAVITQNVDGLHRRAGSRRVLELHGNVLRARCTRCGSKLEWREKPSNLPPSCPRCGGVLRPDVVWFGEPLDTSLLEEAFGLARRSDVMIIIGTSGAVDPAGLLPLAAKESGATLINVNPEPNRYSGVADIELRMRAVEFAERLSRAMGIDI”, which “soluble on expression in E. coli” value is on record?
**A.** soluble
